Data: article PMC11614891, “Accurate de novo design of heterochiral protein–protein interactions” (Cell Research, 2024)
Several values for one entry are separate records, joined by “and”; a condition that tells them apart may be missing. Identical values can stand only once. Square brackets hold non-standard residues; d marks the D form. Ends that are not written are not given here.

T1: L-TrkA (human, biotinylated for BLI (site not stated))
T1 construct: also called D5 domain of human tropomyosin receptor kinase A
T1 chain: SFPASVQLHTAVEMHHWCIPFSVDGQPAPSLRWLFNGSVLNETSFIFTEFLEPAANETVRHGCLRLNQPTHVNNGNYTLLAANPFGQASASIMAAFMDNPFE

T2: D-TrkA (human, all residues D-amino acids (glycine achiral); biotin on the N-terminus; C-terminal amide)
T2 construct: also called mirror image of the D5 domain of human TrkA
T2 chain: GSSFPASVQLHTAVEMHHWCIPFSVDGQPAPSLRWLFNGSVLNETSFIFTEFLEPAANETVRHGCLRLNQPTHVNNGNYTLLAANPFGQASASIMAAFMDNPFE

B1: L-25367-evo_(D-IL-6) (designed binder)
chain: GEEEVIEYLTREFKDDPELVRLLREAIEGLLKAGEDPEIVEMLIESLIHITGNPRVAVKLAKEYA
notes: 25367-evo, evolved from design 25367 by directed evolution; the methods name only the three parents
B2: D-25367-evo_(L-IL-6) (designed binder)
chain: G[dE][dE][dE][dV][dI][dE][dY][dL][dT][dR][dE][dF][dK][dD][dD][dP][dE][dL][dV][dR][dL][dL][dR][dE][dA][dI][dE]G[dL][dL][dK][dA]G[dE][dD][dP][dE][dI][dV][dE][dM][dL][dI][dE][dS][dL][dI][dH][dI][dT]G[dN][dP][dR][dV][dA][dV][dK][dL][dA][dK][dE][dY][dA]
notes: D-protein form of 25367-evo; source: chemically synthesized, folded
B3: D-19437_(L-Pep-1) (designed binder)
chain: G[dS][dL][dP][dV][dE][dK][dI][dI][dR][dE][dA][dK][dK][dI][dL][dD][dE][dL][dL][dK][dR]G[dL][dI][dD][dP][dE][dL][dA][dR][dI][dA][dR][dE][dV][dL][dE][dR][dA][dR][dK][dL]G[dN][dE][dE][dA][dA][dR][dF][dV][dL][dE][dL][dI][dE][dR][dL][dR][dR][dE][dL][dS]G[dS]G
notes: source: chemically synthesized (Fmoc SPPS), folded by dialysis, purified by SEC
B4: L-Pep-1 (peptide)
peptide: DEHELLETAARWFYEIAKRA
modifications: also: biotinylated (site not given here)
notes: artificial amphipathic alpha-helical peptide
B5: D-57445-evo_(L-TrkA) (designed binder)
chain: [dS][dT][dQ][dE][dL][dV][dE][dE][dL][dL][dE][dL][dV][dR][dK][dD][dL][dE][dE][dA][dR][dK][dL][dA][dK][dE][dI][dV][dK][dE][dL]G[dL][dS][dP][dE][dL][dR][dF][dF][dL][dQ][dL][dA][dI][dA][dL][dA][dQ][dR][dD][dP][dE][dV][dA][dR][dR][dI][dL][dE][dR][dA][dL][dN][dL]
notes: source: chemically synthesized, folded
B6: L-25367_(D-IL-6) (designed binder)
chain: GEEEVKEYLTRKFKDDPELVRLLREAIEVLLKAGEDPELVLSLIESLIHITGDPRAAVKLAKEFG
notes: source: E. coli Lemo21(DE3), purified (Ni Sepharose, SEC)
B7: L-57445-evo_(D-TrkA) (designed binder)
chain: STQELVEELLELVRKDLEEARKLAKEIVKELGLSPELRFFLQLAIALAQRDPEVARRILERALNL
notes: the methods name only the three parents
B8: L-57445_(D-TrkA) (designed binder)
chain: STEELVEELLELARKDPQEARKLVEEIVKELGLSPERRFELQLAIVLAQRDPELARRILERALNH
notes: as for B6
B9: D-25367_(L-IL-6) (designed binder)
chain: G[dE][dE][dE][dV][dK][dE][dY][dL][dT][dR][dK][dF][dK][dD][dD][dP][dE][dL][dV][dR][dL][dL][dR][dE][dA][dI][dE][dV][dL][dL][dK][dA]G[dE][dD][dP][dE][dL][dV][dL][dS][dL][dI][dE][dS][dL][dI][dH][dI][dT]G[dD][dP][dR][dA][dA][dV][dK][dL][dA][dK][dE][dF]G
notes: D-protein form of design 25367; source: chemically synthesized (Fmoc SPPS), folded by dialysis, purified by SEC
B10: D-57445_(L-TrkA) (designed binder)
chain: [dS][dT][dE][dE][dL][dV][dE][dE][dL][dL][dE][dL][dA][dR][dK][dD][dP][dQ][dE][dA][dR][dK][dL][dV][dE][dE][dI][dV][dK][dE][dL]G[dL][dS][dP][dE][dR][dR][dF][dE][dL][dQ][dL][dA][dI][dV][dL][dA][dQ][dR][dD][dP][dE][dL][dA][dR][dR][dI][dL][dE][dR][dA][dL][dN][dH]
notes: as for B3

Legend:
D-IL-6 = biological target: T3, D-IL-6 (human, all residues D-amino acids (glycine achiral); biotin on the N-terminus; C-terminal amide); assay: BLI; Octet RED96e; biotinylated target immobilised on streptavidin biosensors, binder in solution; PBS pH 7.4 with 0.02% TWEEN; 25 °C; global fit; details: both partners purified
T3 construct: additional methionine at the N-terminus (Met1 of the chain of 186 residues); human interleukin-6, residues 28-212, made of D-amino acids; also called mirror image of human interleukin-6

L-IL-6 = biological target: T4, L-IL-6 (human, biotinylated for BLI (site not stated)); assay: as above; details: both partners purified
T4 construct: additional methionine at the N-terminus; human interleukin-6, residues 28-212; also called human interleukin-6

L-Pep-1 = biological target: B4; assay: as above; details: both partners purified
[1] = biological target: the molecule itself; assay: SEC; D-19437 alone on Superdex 75 Increase 10/300, compared with the mixture with L-Pep-1; fractions on SDS-PAGE, Coomassie blue
D-19437_(L-Pep-1) = biological target: B3; assay: ITC; MicroCal PEAQ-ITC, 19 injections; peptide titrated over the binder (L-19437 15 uM, D-Pep-1 150 uM); PBS pH 7.4; One Set of Sites mode; details: both partners purified
L-TrkA [2] = biological target: T1, L-TrkA; assay: MST; Nanotemper Monolith NT.115; 50 nM L-TrkA, D-57445-evo in 16 two-fold dilutions from 122 pM to 40 uM; PBS with 0.05% Tween20, pH 7.4; MST power 40%; details: both partners purified
L-TrkA [3] = biological target: T1, L-TrkA; assay: BLI; Octet RED96e; biotinylated target immobilised on streptavidin biosensors, binder in solution; PBS pH 7.4 with 0.02% TWEEN; 25 °C; global fit; details: both partners purified
D-TrkA [4] = biological target: T2, D-TrkA; assay: as above; details: both partners purified
D-TrkA [5] = biological target: T2, D-TrkA; assay: as above; details: both partners purified

T4 sequence (chain, as listed by the source): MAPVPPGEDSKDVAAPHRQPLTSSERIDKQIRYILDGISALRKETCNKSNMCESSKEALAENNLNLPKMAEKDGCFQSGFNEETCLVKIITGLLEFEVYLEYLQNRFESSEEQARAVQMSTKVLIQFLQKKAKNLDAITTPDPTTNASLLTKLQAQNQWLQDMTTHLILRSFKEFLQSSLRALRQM
Sequence of D-19437_(L-Pep-1) (chain, as listed by the source): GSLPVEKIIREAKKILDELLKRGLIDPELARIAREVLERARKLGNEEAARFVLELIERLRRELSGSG

Binder: B1
Kd (D-IL-6): 0.724 nM and 1.68 nM
koff (D-IL-6): 0.000185 s⁻¹ and 0.00046 s⁻¹
kon (D-IL-6): 256000 M⁻¹ s⁻¹ and 275000 M⁻¹ s⁻¹

Binder: B2
Kd (L-IL-6): 3.03 nM and 8.75 nM
koff (L-IL-6): 0.000328 s⁻¹ and 0.000199 s⁻¹

Binder: B3
Kd (L-Pep-1): 59.6 nM and 37.6 nM
koff (L-Pep-1): 0.0162 s⁻¹ and 0.0122 s⁻¹
kon (L-Pep-1): 272000 M⁻¹ s⁻¹ and 324000 M⁻¹ s⁻¹
stoichiometry N [1]: 2

Binder: B4
Kd (D-19437_(L-Pep-1)): 12.4 ± 2.1 nM
stoichiometry N (D-19437_(L-Pep-1)): 0.932 ± 0.003 sites

Binder: B5
Kd (L-TrkA [2]): 1.19 nM
Kd (L-TrkA [3]): 1.73 nM and 1.8 nM
koff (L-TrkA [3]): 0.000248 s⁻¹ and 0.000243 s⁻¹
kon (L-TrkA [3]): 144000 M⁻¹ s⁻¹ and 135000 M⁻¹ s⁻¹

Binder: B6
Kd (D-IL-6): 25.1 nM and 11.8 nM
koff (D-IL-6): 0.00758 s⁻¹
kon (D-IL-6): 302000 M⁻¹ s⁻¹ and 644000 M⁻¹ s⁻¹

Binder: B7
Kd (D-TrkA [4]): 7.84 ± 0.02 nM
Kd (D-TrkA [5]): 7.85 nM and 10.9 nM
koff (D-TrkA [5]): 0.000297 s⁻¹ and 0.000322 s⁻¹
kon (D-TrkA [5]): 37800 M⁻¹ s⁻¹ and 29400 M⁻¹ s⁻¹

Binder: B8
Kd (D-TrkA [5]): 152 nM
koff (D-TrkA [5]): 0.0508 s⁻¹
kon (D-TrkA [5]): 334000 M⁻¹ s⁻¹

Binder: B9
Kd (L-IL-6): 28.3 nM and 48.3 nM
koff (L-IL-6): 0.0111 s⁻¹ and 0.0102 s⁻¹
kon (L-IL-6): 391000 M⁻¹ s⁻¹ and 211000 M⁻¹ s⁻¹

Binder: B10
Kd (L-TrkA [3]): 151 nM
koff (L-TrkA [3]): 0.0351 s⁻¹
kon (L-TrkA [3]): 232000 M⁻¹ s⁻¹
